Laboratory results reported in patent WO2014065403A1 (dated 2014).

T1: mouse CD40 (mouse, UniProt P27512 20-289)
T1 construct: Stably expressed on CHO cells (pCXN3 vector)
T1 sequence: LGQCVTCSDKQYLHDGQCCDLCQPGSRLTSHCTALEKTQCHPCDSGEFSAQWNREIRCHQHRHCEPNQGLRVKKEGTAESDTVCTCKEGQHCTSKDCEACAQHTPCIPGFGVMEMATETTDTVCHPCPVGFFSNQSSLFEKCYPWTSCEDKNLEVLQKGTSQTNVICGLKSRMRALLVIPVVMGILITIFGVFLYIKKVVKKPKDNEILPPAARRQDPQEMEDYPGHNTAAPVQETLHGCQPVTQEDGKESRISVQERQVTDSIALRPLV

T2: cynomolgus monkey CD40 (cynomolgus monkey, UniProt P25942 21-277 (human entry))
T2 construct: Stably expressed on CHO cells (pCXN3 vector); also called cynomolgus CD40
T2 chain: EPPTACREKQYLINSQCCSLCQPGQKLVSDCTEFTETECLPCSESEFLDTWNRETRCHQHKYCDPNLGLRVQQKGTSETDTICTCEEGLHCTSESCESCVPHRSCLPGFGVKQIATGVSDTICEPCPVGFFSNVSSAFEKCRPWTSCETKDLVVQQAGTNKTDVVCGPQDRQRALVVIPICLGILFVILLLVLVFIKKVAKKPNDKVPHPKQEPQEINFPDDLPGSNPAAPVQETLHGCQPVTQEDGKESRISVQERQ


Legend:
[1] = target: T3, partial length CD40 from CD40 amino acid residue 78 onward (human, UniProt P25942 78-277); experiment: FACS on 293T cells transiently expressing partial length CD40
T3 construct: also called D2B1 (by its position in the series D1, D1B2, D2, D2B1, D3, D4); not shown: VSV-G tag added at the C-terminus

[2] = target: T4, partial length CD40 D2 (expressed from the 62nd amino acid of CD40) (human, UniProt P25942 62-277); experiment: FACS at 1 ug/mL on 293T cells transiently expressing partial length CD40
T4 construct: not shown: VSV-G tag added at the C-terminus

mouse CD40 = target: T1, mouse CD40; experiment: FACS on CHO cells expressing mouse CD40
cynomolgus monkey CD40 = target: T2, cynomolgus monkey CD40; experiment: FACS on CHO cells expressing cynomolgus monkey CD40
[3] = target: T5, partial length CD40 from CD40 amino acid residue 146 onward (human, UniProt P25942 146-277); experiment: FACS on 293T cells transiently expressing partial length CD40
T5 construct: also called D4 (by its position in the series D1, D1B2, D2, D2B1, D3, D4); not shown: VSV-G tag added at the C-terminus

[4] = target: T6, partial length CD40 D3 (expressed from the 105th amino acid of CD40) (human, UniProt P25942 105-277); experiment: FACS at 1 ug/mL on 293T cells transiently expressing partial length CD40
T6 construct: not shown: VSV-G tag added at the C-terminus

binding result [1] | binding result [2] | binding result (mouse CD40) | binding result (cynomolgus monkey CD40) | binding result [3] | binding result [4] | Binder
no binding (tested: 1 μg/mL) | binds | – | – | – | – | antibody of SEQ ID NOs: 12 and 37 (antibody, V domains shown, clone name not tied; The text speaks of the mature part of these entries) VH: EVQLQHSGAELVKPGSSVKLSCTASDFNIKDAYMHWVKQRPEQGLEWIGRIDPANGKTKYDPKFQDKATITADTSSNTAYLQLNSLTSEDTAVYYCPRNYYGSRYGYFDVWGAGTTVTVSS VL: QIVLTQSPAILSASPGEKVTITCSASSSVDYMFWFQQKPGTSPKLWIYTTSNLASGVPTRFSGSGSGTSYSLTISRMEAEDAATYYCHQRSSYPLTFGAGTKLELK
no binding (tested: 1 μg/mL) | binds | – | – | – | – | antibody of SEQ ID NOs: 13 and 38 (antibody, V domains shown, clone name not tied; The text speaks of the mature part of these entries) VH: EVQLQQSGAELVKPGASVKLSCTASGFNIKDSYIHWVKQRPEQGLEWIGRIDPANGNTKYDPKFQGKATITSDTSSSTAYLQLTSLTSEDTAVYYCPRNYYGSTYGYFDVWGAGTTVTVSS VL: QIVLTQSPAIMSASPGEKVTITCSASSSVSNMHWFQQKAGTSPKLWIYRTSNLASGVPARFSGSGSGTSYSLTISRMEAEDAATYYCQQGSSYPLTFGAGTKLELK
no binding (tested: 1 μg/mL) | binds | – | – | – | – | antibody of SEQ ID NOs: 28 and 53 (antibody, V domains shown, clone name not tied; The text speaks of the mature part of these entries) VH: EVQLQQSGAELVKPGASVKLSCTGSGFNIKDTYMHWVKQRPEQGLEWIGRIDPANGNTKFDPKFQGKATITADTSTNTAYLQVSSLTSEDTAVYYCVRYGYDGYFDYWGQGTTLTVSS VL: QIVLTQSPAIMSASPGEKVTMTCSVSSSISYMYWYQQKPGTSPKRWIYDTSKLASGVPARFSGSGSGTSYSLTISSMEAEDAATYYCHQRSSYPLTFGAGTKLELK
– | – | no binding | binds | no binding (tested: 1 μg/mL) | binds | mouse antibody PPAT-071-04 (antibody, V domains shown, Mouse monoclonal IgG from ascites; also called hybridoma NITE BP-01435) VH: EVQLQQSGPELVKPGASMKISCKASGYSFADYTMNWVKQSHGKKLEWIGLINPYNGGTSYNQKFKDKATLTVDKSSSTAYMELLSLTTEDSAVYYCAEGVNNFADWGQGTTLTVSG VL: DIVLTQSPTSLAVFLGQRATISCRASKSVSTSGYSYMHWYQQKPGQSPKPLIYLASNLESGVPARFSGSGSGTDFTLNIHPVEEEDAATYYCQHSRELPRTFGGGTKLEIK
– | – | – | – | no binding (tested: 1 μg/mL) | binds | antibody of SEQ ID NOs: 8 and 33 (antibody, V domains shown, clone name not tied; The text speaks of the mature part of these entries) VH: EVQLQQSGPELVKPGASVKMSCKASGYTFTNYVMHWVKQKPGQGLEWIGYVNPYNDDTNYNERFKGKATLTSDKSSSTAYMELSSLTSEDSAVYYCARELTGTYWGQGTLVTVSA VL: DIVMTQAAPSVPVTPGESVSISCRSSKSLLHSNGNTYLYWFLQRPGQSPQLLISRISNLASGVPDRFSGSGSGTAFTLRISRVEAEDVGVYYCMQHVEYPFTFGSGTKLEIK
– | – | – | – | no binding (tested: 1 μg/mL) | binds | antibody of SEQ ID NOs: 15 and 40 (antibody, V domains shown, clone name not tied; The text speaks of the mature part of these entries) VH: QVQLQQSGAELARPGASLKMSCKASGYTFTSYTIHWIKQRPGQGLEWIGYINPSSGYTNDNQKFKDKATLTADKSSTTAYMQLSSLTSEDSAVYYCARLGRPFDYWGQGTTLTVSS VL: EIVLTQSPALMAASPGEKVTITCSVSSSISSSNLHWYQQKSETSPKPWIYGTSNLASGVPVRFSGSGSGTSYSLTISSMEAEDAATYYCQQWSTYPLTFGSGTKLEIK
– | – | – | – | no binding (tested: 1 μg/mL) | binds | antibody of SEQ ID NOs: 16 and 41 (antibody, V domains shown, clone name not tied; The text speaks of the mature part of these entries) VH: EVQLQQSGPELVKPGASVKMSCKASGYTFINYVIHWVKQKPGQGLEWIGYINPYNDDSNYNEKFKGKATLTSDKSSSTAYMELRSLTSEDSAIYYCARDLIGSYWGQGTTLTVSS VL: DIVMTQAAPSVIVTPGESVSISCRSSKSLLHSNGNTYFYWFLQRPGQSPQLLISRISNLASGVPDRFSGSGSGTAFTLRISRVEAEDVGIYYCMQHLEYPFTFGAGTKVELK
